Assay results taken from paper PMC9926490, “Structural Basis for Cyclosporin Isoform-Specific Inhibition of Cyclophilins from Toxoplasma gondii” (ACS Infectious Diseases, 2023).

Substrate: C[C@H](NC(=O)CCC(=O)O)C(=O)N[C@@H](C)C(=O)N1CCC[C@H]1C(=O)N[C@@H](Cc1ccccc1)C(=O)Nc1ccc([N+](=O)[O-])cc1
Experiment: purified protein, by the assay type
Assay type: biochemical, Toxoplasma gondii
Details: other: substrate AAPF, 0 °C, pH 8.0
Description: A trans-isomer is formed by Cyp, which is selectively cleaved by chymotrypsin, producing 4-nitroaniline, a yellow-colored product that can be measured spectrophotometrically.
The assay was performed in 50 mM Hepes, pH 8, and 100 mM NaCl at 0 °C. […] Once the temperature reached 0 °C, chymotrypsin solution, dissolved in HCl 1 mM, was added at 1.8 mg mL^–1 to start the reaction.
Successively, Cyp was added in large excess to enhance the cis-to-trans isomerization. The cis population was estimated by the difference between the final and the initial absorbance.
For all of the experiments, the slope of the catalyzed reaction was corrected for the spontaneous thermal cis–trans isomerization in the presence of the only chymotrypsin.
All measurements were repeated as triplicate, and the error was calculated as the mean standard error of the three measurements. The error associated with the parameter kcat/Km was propagated in agreement with the following equation eq 1 [drawing 1]

B1: TgCyp18.4 (Toxoplasma gondii VEG) (protein)
chain: MSVTIKTNLGDLKAELYCQQAPKTCKNFLALCASDYYNGTRFHRNIKGFAIQGGDPTGTGKGGESIYGGLFEDEFVSSLKHDRRGILSMANQGKPNTNGSQFFITYCRQPHLNGVYSVFGRLIDGMDTLDKMEREPVGRKNRPENDIIIEQVIIHANPIAEMDQL
Protein B1 has a Km of 286 ± 39 µM, a kcat of 2.8 ± 0.4 s⁻¹ and a kcat/Km of 10000 ± 2000 M⁻¹ s⁻¹.
